Residue numbers refer to the chain shown, from its start. Names and notes keep the numbering of the source.
T1: human FcγRIIb receptor protein (R&D Systems) (human, UniProt P31994 46-217)
T1 construct: Bought protein injected over captured antibody in Biacore; also called CD32b
T1 sequence (looked up): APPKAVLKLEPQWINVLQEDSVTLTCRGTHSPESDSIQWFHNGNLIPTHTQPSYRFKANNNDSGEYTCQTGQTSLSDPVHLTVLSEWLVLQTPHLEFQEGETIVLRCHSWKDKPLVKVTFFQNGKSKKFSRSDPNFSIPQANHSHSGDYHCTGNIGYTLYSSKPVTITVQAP

T2: human FcγRIIa (131R), His- and GST-tagged (human, UniProt P12318 34-217)
T2 construct: Expressed in HEK293T cells, purified by nickel chromatography; also called R131 FcγRIIa; not shown: 6xHis and GST tags of the pTT5 vector
T2 sequence (looked up): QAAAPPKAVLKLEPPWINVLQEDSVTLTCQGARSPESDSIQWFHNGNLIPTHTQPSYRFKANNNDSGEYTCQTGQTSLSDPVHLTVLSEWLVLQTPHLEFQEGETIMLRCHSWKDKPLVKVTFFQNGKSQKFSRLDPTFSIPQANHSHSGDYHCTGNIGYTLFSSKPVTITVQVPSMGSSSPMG

T3: human FcγRIIa (131H), His- and GST-tagged (human, UniProt P12318 34-217)
T3 construct: also called H131 FcγRIIa; HIIa; not shown: 6xHis and GST tags of the pTT5 vector
T3 sequence (looked up): T2 sequence (looked up) with R134H

T4: mFcγRIIb (Mus musculus, UniProt P08101)
T4 construct: extracellular region, C-terminal His- and GST-tag; also called mouse FcγRII
T4 sequence (receptor extracellular region, looked up): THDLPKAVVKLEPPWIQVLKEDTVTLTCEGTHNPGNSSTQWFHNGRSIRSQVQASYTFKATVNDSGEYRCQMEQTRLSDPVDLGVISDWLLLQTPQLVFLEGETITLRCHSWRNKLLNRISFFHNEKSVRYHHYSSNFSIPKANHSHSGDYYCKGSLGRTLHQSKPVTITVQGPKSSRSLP

T5: mFcγRIV
T5 construct: also called mouse FcγRIV; not shown: C-terminal His and GST tags (named only on our card)
T5 chain: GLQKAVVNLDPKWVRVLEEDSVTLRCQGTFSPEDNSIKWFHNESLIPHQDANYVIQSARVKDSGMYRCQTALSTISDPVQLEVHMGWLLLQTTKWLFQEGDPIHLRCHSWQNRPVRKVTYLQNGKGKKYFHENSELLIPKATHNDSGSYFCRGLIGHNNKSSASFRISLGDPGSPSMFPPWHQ

T6: cynoFcγRIIb (Macaca fascicularis, UniProt A0A140HDP4)
T6 construct: extracellular region, C-terminal His- and GST-tag; also called cynomolgus monkey FcγRIIb
T6 sequence (receptor extracellular region): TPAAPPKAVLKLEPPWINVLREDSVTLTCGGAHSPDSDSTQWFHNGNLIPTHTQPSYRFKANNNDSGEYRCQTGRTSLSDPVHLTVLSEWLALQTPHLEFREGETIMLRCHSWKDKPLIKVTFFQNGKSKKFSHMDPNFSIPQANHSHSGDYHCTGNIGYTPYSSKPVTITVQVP

T7: human FcγRIIb on cells (transfected HEK293T cells; primary human B cells) (human, UniProt P31994 43-310)
T7 construct: whole, on cells; also called CD32b
T7 sequence (looked up): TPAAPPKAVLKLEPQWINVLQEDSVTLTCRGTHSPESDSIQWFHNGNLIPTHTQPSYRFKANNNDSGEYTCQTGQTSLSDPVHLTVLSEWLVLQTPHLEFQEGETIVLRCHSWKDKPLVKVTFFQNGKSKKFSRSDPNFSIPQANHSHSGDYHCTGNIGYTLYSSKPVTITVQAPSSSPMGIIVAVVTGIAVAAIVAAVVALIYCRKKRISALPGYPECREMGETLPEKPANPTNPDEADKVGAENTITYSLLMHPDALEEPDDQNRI

B1: L234D/G236N/S267E (antibody, human IgG1, kappa)
heavy: EVQLVESGGGLVKPGGSLKLSCAASGYTFTSYVMHWVRQAPGKGLEWIGYINPYNDGTKYNEKFQGRVTISSDKSISTAYMELSSLRSEDTAMYYCARGTYYYGTRVFDYWGQGTLVTVSSASTKGPSVFPLAPSSKSTSGGTAALGCLVKDYFPEPVTVSWNSGALTSGVHTFPAVLQSSGLYSLSSVVTVPSSSLGTQTYICNVNHKPSNTKVDKKVEPKSCDKTHTCPPCPAPEDLNGPSVFLFPPKPKDTLMISRTPEVTCVVVDVEHEDPEVKFNWYVDGVEVHNAKTKPREEQYNSTYRVVSVLTVLHQDWLNGKEYKCKVSNKALPAPIEKTISKAKGQPREPQVYTLPPSREEMTKNQVSLTCLVKGFYPSDIAVEWESNGQPENNYKTTPPVLDSDGSFFLYSKLTVDKSRWQQGNVFSCSVMHEALHNHYTQKSLSLSPGK
light: DIVMTQSPATLSLSPGERATLSCRSSKSLQNVNGNTYLYWFQQKPGQSPQLLIYRMSNLNSGVPDRFSGSGSGTEFTLTISSLEPEDFAVYYCMQHLEYPITFGAGTKLEIKRTVAAPSVFIFPPSDEQLKSGTASVVCLLNNFYPREAKVQWKVDNALQSGNSQESVTEQDSKDSTYSLSSTLTLSKADYEKHKVYACEVTHQGLSSPVTKSFNRGEC
notes: HuAM4G7 anti-CD19 IgG1 (m1) with these Fc substitutions, EU index; copies: 2 + 2
B2: A327L (antibody, human IgG1, kappa)
heavy: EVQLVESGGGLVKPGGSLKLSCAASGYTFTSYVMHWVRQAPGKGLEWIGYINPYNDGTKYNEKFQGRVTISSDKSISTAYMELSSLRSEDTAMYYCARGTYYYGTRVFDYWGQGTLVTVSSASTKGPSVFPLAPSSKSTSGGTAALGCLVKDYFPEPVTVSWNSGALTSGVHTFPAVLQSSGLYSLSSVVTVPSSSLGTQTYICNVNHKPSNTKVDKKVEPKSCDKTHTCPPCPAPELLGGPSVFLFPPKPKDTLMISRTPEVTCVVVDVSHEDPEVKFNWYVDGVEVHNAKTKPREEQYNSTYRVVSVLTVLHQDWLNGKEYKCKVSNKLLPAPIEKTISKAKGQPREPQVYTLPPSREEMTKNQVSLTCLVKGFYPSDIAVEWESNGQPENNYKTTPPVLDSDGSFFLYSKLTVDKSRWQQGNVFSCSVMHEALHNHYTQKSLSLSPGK
light: B1 light
notes: HuAM4G7 anti-CD19 IgG1 (m1) with this Fc substitution, EU index; copies: 2 + 2
B3: S267E/L328Y (antibody, human IgG1, kappa)
heavy: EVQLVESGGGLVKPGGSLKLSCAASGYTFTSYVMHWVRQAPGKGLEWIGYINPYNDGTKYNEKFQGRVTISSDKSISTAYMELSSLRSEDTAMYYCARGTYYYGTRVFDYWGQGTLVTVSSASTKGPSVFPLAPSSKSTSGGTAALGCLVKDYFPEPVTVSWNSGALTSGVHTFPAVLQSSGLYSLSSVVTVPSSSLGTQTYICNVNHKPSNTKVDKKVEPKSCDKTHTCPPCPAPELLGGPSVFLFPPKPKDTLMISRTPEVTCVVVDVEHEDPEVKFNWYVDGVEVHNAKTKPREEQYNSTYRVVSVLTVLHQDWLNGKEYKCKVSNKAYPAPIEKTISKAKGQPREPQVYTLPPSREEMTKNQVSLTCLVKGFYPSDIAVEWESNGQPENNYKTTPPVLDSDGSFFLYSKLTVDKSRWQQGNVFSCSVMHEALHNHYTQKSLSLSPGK
light: B1 light
notes: as for B1
B4: S267E/A327E (antibody, human IgG1, kappa)
heavy: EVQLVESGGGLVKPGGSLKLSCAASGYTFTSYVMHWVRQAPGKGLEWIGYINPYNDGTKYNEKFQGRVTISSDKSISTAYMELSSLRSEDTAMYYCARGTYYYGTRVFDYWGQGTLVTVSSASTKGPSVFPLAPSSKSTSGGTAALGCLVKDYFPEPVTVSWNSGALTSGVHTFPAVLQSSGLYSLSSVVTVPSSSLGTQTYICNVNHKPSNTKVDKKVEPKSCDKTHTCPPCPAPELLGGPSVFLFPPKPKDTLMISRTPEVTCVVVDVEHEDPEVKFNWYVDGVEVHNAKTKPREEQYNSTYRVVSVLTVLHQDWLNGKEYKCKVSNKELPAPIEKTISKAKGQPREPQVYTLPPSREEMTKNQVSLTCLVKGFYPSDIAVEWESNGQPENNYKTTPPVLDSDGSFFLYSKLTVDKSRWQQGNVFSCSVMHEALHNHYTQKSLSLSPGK
light: B1 light
notes: as for B1
B5: G236A/G237A (antibody, human IgG1, kappa)
heavy: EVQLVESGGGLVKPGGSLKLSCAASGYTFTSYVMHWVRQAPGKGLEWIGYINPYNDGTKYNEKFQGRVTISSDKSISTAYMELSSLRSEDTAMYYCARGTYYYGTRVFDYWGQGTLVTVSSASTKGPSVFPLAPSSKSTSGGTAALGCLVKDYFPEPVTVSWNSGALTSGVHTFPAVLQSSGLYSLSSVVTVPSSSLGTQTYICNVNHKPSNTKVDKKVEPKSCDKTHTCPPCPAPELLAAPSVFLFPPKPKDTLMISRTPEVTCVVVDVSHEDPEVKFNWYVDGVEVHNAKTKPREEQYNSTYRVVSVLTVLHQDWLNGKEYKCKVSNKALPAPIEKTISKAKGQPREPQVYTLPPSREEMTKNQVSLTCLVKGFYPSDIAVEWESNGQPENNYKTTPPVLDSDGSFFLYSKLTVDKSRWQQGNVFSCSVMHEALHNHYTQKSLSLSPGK
light: B1 light
notes: as for B1
B6: S267D (antibody, human IgG1, kappa)
heavy: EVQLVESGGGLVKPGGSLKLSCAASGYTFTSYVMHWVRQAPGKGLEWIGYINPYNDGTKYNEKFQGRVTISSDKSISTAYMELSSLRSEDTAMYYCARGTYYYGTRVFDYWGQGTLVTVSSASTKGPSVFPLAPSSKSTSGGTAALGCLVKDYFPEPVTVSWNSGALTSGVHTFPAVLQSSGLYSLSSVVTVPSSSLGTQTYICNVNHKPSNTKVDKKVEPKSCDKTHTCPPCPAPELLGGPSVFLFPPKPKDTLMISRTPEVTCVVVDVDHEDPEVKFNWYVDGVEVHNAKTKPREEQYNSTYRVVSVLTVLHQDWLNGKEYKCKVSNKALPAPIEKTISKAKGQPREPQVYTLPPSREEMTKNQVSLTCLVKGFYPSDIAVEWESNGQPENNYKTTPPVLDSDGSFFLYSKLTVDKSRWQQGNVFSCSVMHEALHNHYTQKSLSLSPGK
light: B1 light
notes: as for B2
B7: G236S/G237A (antibody, human IgG1, kappa)
heavy: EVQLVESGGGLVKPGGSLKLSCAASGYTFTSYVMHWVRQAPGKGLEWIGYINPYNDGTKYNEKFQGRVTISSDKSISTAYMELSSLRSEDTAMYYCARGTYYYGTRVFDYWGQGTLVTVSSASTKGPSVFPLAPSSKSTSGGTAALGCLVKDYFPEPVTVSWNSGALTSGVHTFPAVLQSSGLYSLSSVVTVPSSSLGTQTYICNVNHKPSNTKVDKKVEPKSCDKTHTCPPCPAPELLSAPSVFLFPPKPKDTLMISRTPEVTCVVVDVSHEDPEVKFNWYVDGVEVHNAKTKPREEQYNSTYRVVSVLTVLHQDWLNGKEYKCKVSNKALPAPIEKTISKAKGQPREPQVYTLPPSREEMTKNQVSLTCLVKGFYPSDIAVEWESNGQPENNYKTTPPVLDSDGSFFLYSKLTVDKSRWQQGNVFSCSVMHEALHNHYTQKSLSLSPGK
light: B1 light
notes: as for B1
B8: anti-CD19 antibody HuAM4G7 IgG1 S267A (antibody)
heavy: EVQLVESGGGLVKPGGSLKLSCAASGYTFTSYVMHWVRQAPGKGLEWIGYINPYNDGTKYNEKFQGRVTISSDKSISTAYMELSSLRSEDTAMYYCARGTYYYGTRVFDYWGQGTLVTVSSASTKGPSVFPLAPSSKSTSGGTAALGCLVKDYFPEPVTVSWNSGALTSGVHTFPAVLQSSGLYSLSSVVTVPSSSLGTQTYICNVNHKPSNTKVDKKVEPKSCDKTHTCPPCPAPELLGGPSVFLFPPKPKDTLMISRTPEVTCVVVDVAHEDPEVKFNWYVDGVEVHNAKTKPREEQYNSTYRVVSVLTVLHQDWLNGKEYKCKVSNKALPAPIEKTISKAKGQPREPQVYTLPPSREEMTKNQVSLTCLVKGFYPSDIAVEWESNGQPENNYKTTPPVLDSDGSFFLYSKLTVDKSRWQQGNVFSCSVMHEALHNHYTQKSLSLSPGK
light: B1 light
notes: Positions in EU numbering; copies: 2 + 2

molecular target: T1, human FcγRIIb receptor protein (R&D …); assay: SPR
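Wherever Fold vs WT IgG1 (off-rate) is given: fold improvement over WT IgG1 so higher means slower dissociation than WT.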

Fold vs WT IgG1 [fold]	Kd [nM]	binding result	Binder
5.11	287		B1
		no binding	B2
43.1	34.1		B3
30.9	47.5		B4
0.0578	25400		B5
4.45	330		B6
0.0797	18400		B7

molecular target: T8, human FcγRI receptor protein (R&D Systems) (human, UniProt P12314 16-288); assay: SPR
T8 construct: also called soluble FcγRI; solFcγRI
T8 sequence (P12314 16-288 limits assumed): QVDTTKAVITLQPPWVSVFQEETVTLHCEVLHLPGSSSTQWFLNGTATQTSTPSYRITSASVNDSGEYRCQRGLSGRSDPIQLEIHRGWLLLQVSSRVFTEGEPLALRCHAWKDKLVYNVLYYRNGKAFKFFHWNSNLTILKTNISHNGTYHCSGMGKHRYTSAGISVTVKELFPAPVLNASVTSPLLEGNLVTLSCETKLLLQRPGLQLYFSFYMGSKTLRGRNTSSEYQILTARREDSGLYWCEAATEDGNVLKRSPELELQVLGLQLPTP

Fold vs WT IgG1 [fold]	Kd [nM]	Binder
0.224	1.47	B3
2.3	0.143	B4
2.11	0.156	B6
1.15	0.287	B8

molecular target: T2, human FcγRIIa (131R), His- and …; assay: SPR

Fold vs WT IgG1 [fold]	Kd [nM]	Binder
0.728	1180	B1
122	7.06	B3
29.3	29.3	B4
8.99	95.5	B6
4.29	200	B8

molecular target: T3, human FcγRIIa (131H), His- and …; assay: SPR

Fold vs WT IgG1 [fold]	Kd [nM]	Binder
1.34	481	B3
2.66	243	B4
0.93	695	B6
1.22	530	B8

molecular target: T9, human FcγRIIIa (158V), His- and GST-tagged (human, UniProt P08637 17-208); assay: SPR
T9 construct: also called V158 FcγRIIIa; VIIIa; not shown: 6xHis and GST tags of the pTT5 vector
T9 sequence (P08637 17-208 F176V): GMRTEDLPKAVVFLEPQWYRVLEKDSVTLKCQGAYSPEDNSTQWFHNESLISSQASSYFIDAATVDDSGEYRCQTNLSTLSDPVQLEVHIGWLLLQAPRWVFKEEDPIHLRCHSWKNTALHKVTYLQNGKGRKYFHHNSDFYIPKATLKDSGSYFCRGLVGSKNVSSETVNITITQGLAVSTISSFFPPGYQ

binding result	Fold vs WT IgG1 [fold]	Kd [nM]	Binder
no binding			B3
	0.00894	21400	B4
	1.51	127	B6
	0.952	201	B8

molecular target: T4, mFcγRIIb; assay: SPR

Fold vs WT IgG1 (off-rate) [fold]	Binder
7.92	B3
2.8	B4
1.95	B6
3.02	B8

Molecular target: T5, mFcγRIV
Assay: SPR

Fold vs WT IgG1 (off-rate) [fold]	Binder
1.04	B4
1.27	B6
1.53	B8

molecular target: T6, cynoFcγRIIb; assay: SPR

Fold vs WT IgG1 (off-rate) [fold]	Binder
1.93	B3
1.03	B4
1.03	B6
1.05	B8

molecular target: T10, cynoFcγRIIIa (Macaca fascicularis, UniProt Q8SPW2); assay: SPR
T10 construct: extracellular region, C-terminal His- and GST-tag; also called cynomolgus monkey FcγRIIIa
T10 sequence (Q8SPW2 17-208): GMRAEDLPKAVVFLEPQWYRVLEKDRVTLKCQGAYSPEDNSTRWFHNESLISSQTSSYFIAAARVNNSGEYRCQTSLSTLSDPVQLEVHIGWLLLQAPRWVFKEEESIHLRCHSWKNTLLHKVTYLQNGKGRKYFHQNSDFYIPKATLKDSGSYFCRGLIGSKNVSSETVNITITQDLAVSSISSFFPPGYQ

Fold vs WT IgG1 (off-rate) [fold]	Binder
0.465	B4
1.27	B6
1.27	B8

molecular target: T4, mFcγRIIb; assay: SPR, Kd
Method: (§1) Variants were screened for receptor affinity using Biacore™ technology, also referred to as Biacore herein, a surface plasmon resonance (SPR) based technology for studying biomolecular interactions in real time. SPR measurements were performed using a Biacore 3000 instrument (Biacore, Piscataway, N.J.). A protein A/G (Pierce Biotechnology) CM5 biosensor chip (Biacore) was generated using a standard primary amine coupling protocol. All measurements were performed using HBS-EP buffer (10 mM HEPES pH 7.4, 0.15 M NaCl, 3 mM EDTA, 0.005% vol/vol surfactant P20, Biacore). Antibodies at 20 nM or 50 nM in HBS-EP buffer were immobilized on the protein A/G surface and FcγRs were injected. After each cycle, the surface was regenerated by injecting glycine buffer (10 mM, pH 1.5). Data were processed by zeroing time and response before the injection of FcγR and by subtracting appropriate nonspecific signals (response of reference channel and injection of running buffer). Kinetic analyses were performed by global fitting of binding data with a 1:1 Langmuir binding model using BIAevaluation software (Biacore).
(§2) Variant antibodies were tested for their affinity to mouse or cynologous monkey FcγRs using Biacore SPR as described above. Specifically, antibodies were first immobilized on a protein A/G chip to high density, and then followed by injections of the extracellular domain of the mouse or cynologous monkey FcγR of interest. Both association and dissociation phases were tracked in real time using the Biacore technology.

binding result	Binder
no binding	B1
no binding	B2
no binding	B5
no binding	B7

molecular target: T6, cynoFcγRIIb; assay: SPR, Kd
Method: as §1, §2

binding result	Binder
no binding	B1
no binding	B2
no binding	B5
no binding	B7

molecular target: T10, cynoFcγRIIIa; assay: SPR, Kd
Method: as §1, §2

binding result	Binder
no binding	B3

molecular target: T1, human FcγRIIb receptor protein (R&D …); assay: Biacore SPR, Kd(native IgG1)/Kd(variant)

fold affinity relative to native IgG1 [fold]	Binder
3.6	B8

molecular target: T1, human FcγRIIb receptor protein (R&D …); assay: Biacore SPR, antibody captured on protein A/G chip, FcγR injected

Kd [nM]	Binder
408	B8

molecular target: T7, human FcγRIIb on cells (transfected …); assay: flow cytometry on FcγRIIb-transfected 293T cells [top left panel]
Method: (§3) In order to validate the Biacore data and evaluate receptor binding of the variants on the cell surface, binding of select antibodies to cells expressing FcγRIIb was measured. […] HEK293T cells in DMEM with 10% FBS were transfected with human FcγRIIb cDNA in pCMV6 expression vector (Origene Technologies, Rockville, Md.), cultured for 3 days, harvested, washed twice in PBS, resuspended in PBS with 0.1% BSA (PBS/BSA), and aliquoted at 2×10^5 cells per well into 96-well microtiter plates. Fc variant antibodies were serially diluted in PBS/BSA then added to the cells and incubated with mixing for 1 h at room temperature. After extensive washing with PBS/BSA, phycoerythrin (PE)-labeled anti-human-Fab-specific goat F(ab′)2 fragment was added for detection. Cells were incubated for 30 min at room temperature, washed, and resuspended in PBS/BSA. Binding was evaluated using a FACSCanto II flow cytometer (BD Biosciences, San Jose, Calif.), and the mean fluorescence intensity (MFI) was plotted as a function of antibody concentration using Graph Pad Prism software (GraphPad Software, San Diego, Calif.) from which half-maximal binding (EC50) values were determined by sigmoidal dose response modeling.

EC50 (read off the curve) [ng/mL]	Binder
~30	B6

molecular target: T7, human FcγRIIb on cells (transfected …); assay: flow cytometry on FcγRIIb-transfected 293T cells [middle left panel]
Method: as §3

EC50 (read off the curve) [ng/mL]	Binder
~10	B4
